In patent US20080113383A1 (FIBRO GEN, published 2008):
Where no end group is shown, it is not given here.

Assays:
Assay in all cases: cell-based or functional assay
[1] = target: EGLN1
[2] = target: EGLN2
[3] = target: EGLN3

DTDLDLEMLIPYIPMDDDFQ (not fully specified; printed as DTDLDLEMLIpYIPMDDDFQ) [DTDLDLEMLIpYIPMDDDFQ]
Activity (%)* [1]: 15.6% | Activity (%)* [2]: 17.8% | Activity (%)* [3]: 101%

DTDLDAEASAPYIPADDDFQ [DTDLDAEASApYIPADDDFQ]
Activity (%)* [1]: 10.5% | Activity (%)* [2]: 8.82% | Activity (%)* [3]: 4.11%

DTDLDIEAVAPYIPADDDFQ [DTDLDIEAVApYIPADDDFQ]
Activity (%)* [1]: 23.9% | Activity (%)* [2]: 23.8% | Activity (%)* [3]: 61.3%

DTDLDREALAPYIPADDDFQ (not fully specified; printed as DTDLDREALApYIPADDDFQ) [DTDLDREALApYIPADDDFQ]
Activity (%)* [1]: 19.9% | Activity (%)* [2]: 15.7% | Activity (%)* [3]: 49.8%

DTDLDTEAVAPYIPADDDFQ (not fully specified; printed as DTDLDTEAVApYIPADDDFQ) [DTDLDTEAVApYIPADDDFQ]
Activity (%)* [1]: 16.6% | Activity (%)* [2]: 19% | Activity (%)* [3]: 26.8%

DTDLDLEMLMPYIPMDDDFQ (not fully specified; printed as DTDLDLEMLMpYIPMDDDFQ) [DTDLDLEMLMpYIPMDDDFQ]
Activity (%)* [1]: 26.4% | Activity (%)* [2]: 27.8% | Activity (%)* [3]: 58.9%

DTDLDLEAIAPYIPADDDFQ [DTDLDLEAIApYIPADDDFQ]
Activity (%)* [1]: 88% | Activity (%)* [2]: 89% | Activity (%)* [3]: 104%

DTDLDLEAGAPYIPADDDFQ [DTDLDLEAGApYIPADDDFQ]
Activity (%)* [1]: 11.3% | Activity (%)* [2]: 9.84% | Activity (%)* [3]: 12.2%

DTDLDLEAQAPYIPADDDFQ [DTDLDLEAQApYIPADDDFQ]
Activity (%)* [1]: 23.4% | Activity (%)* [2]: 19.1% | Activity (%)* [3]: 39.4%

DTDLDTEAFAPYIPADDDFQ (not fully specified; printed as DTDLDTEAFApYIPADDDFQ) [DTDLDTEAFApYIPADDDFQ]
Activity (%)* [1]: 22.2% | Activity (%)* [2]: 28.5% | Activity (%)* [3]: 24.1%

DTDLDLEALAPYIPADDDFQ [DTDLDLEALApYIPADDDFQ]
Activity (%)* [1]: 102% | Activity (%)* [2]: 102% | Activity (%)* [3]: 119%

DTDLDTEAIAPYIPADDDFQ (not fully specified; printed as DTDLDTEAIApYIPADDDFQ) [DTDLDTEAIApYIPADDDFQ]
Activity (%)* [1]: 23.7% | Activity (%)* [2]: 25.3% | Activity (%)* [3]: 19%

DTDLDLEMLKPYIPMDDDFQ (not fully specified; printed as DTDLDLEMLKpYIPMDDDFQ) [DTDLDLEMLKpYIPMDDDFQ]
Activity (%)* [1]: 68.7% | Activity (%)* [2]: 57.7% | Activity (%)* [3]: 74.5%

DTDLDVEAVAPYIPADDDFQ (not fully specified; printed as DTDLDVEAVApYIPADDDFQ) [DTDLDVEAVApYIPADDDFQ]
Activity (%)* [1]: 22.8% | Activity (%)* [2]: 16.6% | Activity (%)* [3]: 49%

DTDLDTEAYAPYIPADDDFQ (not fully specified; printed as DTDLDTEAYApYIPADDDFQ) [DTDLDTEAYApYIPADDDFQ]
Activity (%)* [1]: 24.1% | Activity (%)* [2]: 25.6% | Activity (%)* [3]: 36%

DTDLDNEALAPYIPADDDFQ (not fully specified; printed as DTDLDNEALApYIPADDDFQ) [DTDLDNEALApYIPADDDFQ]
Activity (%)* [1]: 27.1% | Activity (%)* [2]: 21.4% | Activity (%)* [3]: 57.6%

DTDLDLEAEAPYIPADDDFQ [DTDLDLEAEApYIPADDDFQ]
Activity (%)* [1]: 9.97% | Activity (%)* [2]: 13.2% | Activity (%)* [3]: 16.9%

DTDLDLEMLQPYIPMDDDFQ (not fully specified; printed as DTDLDLEMLQpYIPMDDDFQ) [DTDLDLEMLQpYIPMDDDFQ]
Activity (%)* [1]: 45.1% | Activity (%)* [2]: 38.1% | Activity (%)* [3]: 59.9%

DTDLDLEMLRPYIPMDDDFQ (not fully specified; printed as DTDLDLEMLRpYIPMDDDFQ) [DTDLDLEMLRpYIPMDDDFQ]
Activity (%)* [1]: 19.8% | Activity (%)* [2]: 14.3% | Activity (%)* [3]: 77.6%

DTDLDLEASAPYIPADDDFQ [DTDLDLEASApYIPADDDFQ]
Activity (%)* [1]: 29.6% | Activity (%)* [2]: 31.6% | Activity (%)* [3]: 25.1%

DTDLDHEALAPYIPADDDFQ [DTDLDHEALApYIPADDDFQ]
Activity (%)* [1]: 23.4% | Activity (%)* [2]: 21.5% | Activity (%)* [3]: 55.8%

DTDLDYEALAPYIPADDDFQ (not fully specified; printed as DTDLDYEALApYIPADDDFQ) [DTDLDYEALApYIPADDDFQ]
Activity (%)* [1]: 94.2% | Activity (%)* [2]: 108% | Activity (%)* [3]: 136%

DTDLDIEANAPYIPADDDFQ [DTDLDIEANApYIPADDDFQ]
Activity (%)* [1]: 33.2% | Activity (%)* [2]: 34.4% | Activity (%)* [3]: 30.4%

DTDLDAEAAAPYIPADDDFQ [DTDLDAEAAApYIPADDDFQ]
Activity (%)* [1]: 12.6% | Activity (%)* [2]: 8.63% | Activity (%)* [3]: 7.18%

DTDLDVEALAPYIPADDDFQ (not fully specified; printed as DTDLDVEALApYIPADDDFQ) [DTDLDVEALApYIPADDDFQ]
Activity (%)* [1]: 31.5% | Activity (%)* [2]: 29% | Activity (%)* [3]: 115%

DTDLDTEATAPYIPADDDFQ (not fully specified; printed as DTDLDTEATApYIPADDDFQ) [DTDLDTEATApYIPADDDFQ]
Activity (%)* [1]: 21.9% | Activity (%)* [2]: 24.8% | Activity (%)* [3]: 16.5%

DTDLDAEATAPYIPADDDFQ [DTDLDAEATApYIPADDDFQ]
Activity (%)* [1]: 20.8% | Activity (%)* [2]: 19.4% | Activity (%)* [3]: 18.5%

DTDLDVEATAPYIPADDDFQ (not fully specified; printed as DTDLDVEATApYIPADDDFQ) [DTDLDVEATApYIPADDDFQ]
Activity (%)* [1]: 20.4% | Activity (%)* [2]: 13.6% | Activity (%)* [3]: 24%

DTDLDAEAIAPYIPADDDFQ [DTDLDAEAIApYIPADDDFQ]
Activity (%)* [1]: 31.3% | Activity (%)* [2]: 24% | Activity (%)* [3]: 25.7%
